For assay [1], the target named is T1, recombinant human TSLP-his (human, UniProt Q969D9 29-159, biotin-labeled in the ELISAs).
T1 construct: In-house made; not shown: His tag at the C-terminus
The assay can be described thus: capture ELISA: antibody captured on anti-human IgG Fc F(ab')2, biotin human TSLP-his, SA-HRP. The method, then:
Briefly, 96-well micro plates were coated with 100 μL 2 μg/mL AffiniPure F(ab′)₂ Fragment Goat Anti-Human IgG, Fey fragment specific (Jackson Immuno Research, Cat #109-006-008) in PBS and incubated overnight at 4° C. Plates were washed 4 times with wash buffer (PBS+0.05% Tween-20, PBST) and then blocked with 200 μL/well blocking buffer (5% w/v non-fatty milk in PBST) for 2 hours at 37° C. […] After the final wash, the plates were incubated with 100 μL/well TMB (Innoreagents). The reaction was stopped 15 minutes later at room temperature with 50 μL/well 1M H₂SO₄, and the absorbance of each well was read on a microplate reader using dual wavelength mode with 450 nm for TMB and 630 nm as the reference wavelength. The OD (450-630) values were plotted against antibody concentration. Data was analyzed using Graphpad Prism and EC₅₀ values were reported.
A general note: In an ELISA, binding on a coated surface is turned into a signal by an enzyme label.

The target of assay [2] is T1, recombinant human TSLP-his. The assay can be described thus: competitive ELISA: antibody pre-mixed with biotin human TSLP-his; blocked binding to coated TSLPR-Fc/IL7Ra-Fc. The method, then: Briefly, 100 μL human TSLPR-Fc proteins (SEQ ID NO: 34-SEQ ID NO: 38 fusion, prepared in-house) at 1 μg/mL in PBS, and 100 μL human IL7Ra-Fc proteins (SEQ ID NO: 35-SEQ ID NO: 38 fusion, prepared in-house) at 1 μg/mL in PBS were coated on 96-well micro plates overnight at 4° C. The next day, plates were washed with wash buffer (PBS+0.05% Tween-20, PBST), and blocked with 5% w/v non-fatty milk in PBST for 2 hours at 37° C. Plates were then washed again using wash buffer.
After incubation at 37° C. for 40 minutes, plates were washed 4 times using wash buffer. […] Plates were washed again using wash buffer. Finally, TMB was added and the reaction was stopped using 1M H₂SO₄. The absorbance was read on a microplate reader using dual wavelength mode with 450 nm for TMB and 630 nm as the reference wavelength, then the OD (450-630) values were plotted against the antibody concentration. Data was analyzed using Graphpad Prism and IC₅₀ values were reported.

Assay [3] has as its target T2, biotin-labeled human TSLP-Fc (human, biotin-labeled).
T2 construct: also called TSLP-Fc protein; TSLP-Fc-biotin
Kind of assay: cell-based blocking FACS: antibody pre-mixed with biotin human TSLP-Fc; blocked binding to cell-surface TSLPR/IL7Ra on HEK293T-TSLPR/IL7R/STAT5-Luc 5C5 cells. The protocol: (§1) The cells were prepared following the instruction of lipofectamine 3000 transfection reagent (Thermo Fisher), by transfecting HEK293T cells (ATCC® CRL-11268) with pCMV-T-P plasmids inserted with TSLPR coding sequence between EcoRI and Xba1 sites and pCMV3-SP plasmids inserted with IL7Ra coding sequence between HindIII and Xba1 sites as well as pGL4.52 [luc2P/STAT5RE/Hygro](Promega).
(§2) The cells were harvested from cell culture flasks, washed twice and re-suspended in phosphate buffered saline (PBS) containing 2% v/v Fetal Bovine Serum (FACS buffer). […] Cells were washed twice with FACS buffer, and then added and incubated with 100 μL/well R-Phycoerythrin Streptavidin (1:500 dilution in FACS buffer, Jackson Immunoresearch, Cat #016-110-084) for 40 minutes at 4° C. in dark. Cells were washed twice and re-suspended in FACS buffer. Fluorescence was measured using a Becton Dickinson FACS Canto II-HTS equipment. Data was analyzed using Graphpad Prism and IC₅₀ values were reported.

The target in assay [4] is T2, biotin-labeled human TSLP-Fc. Described as above. The protocol: as §1, §2
This is another data set of the same source.

Read-outs that look alike come from different tables or passages of the source.

As a reminder, the EC50 is the concentration that produces a half-maximal response. As usually defined, the IC50 is the point on the concentration scale where inhibition reaches its midpoint.

B1: hu1C5F12E9-V8(IgG4) (antibody)
heavy: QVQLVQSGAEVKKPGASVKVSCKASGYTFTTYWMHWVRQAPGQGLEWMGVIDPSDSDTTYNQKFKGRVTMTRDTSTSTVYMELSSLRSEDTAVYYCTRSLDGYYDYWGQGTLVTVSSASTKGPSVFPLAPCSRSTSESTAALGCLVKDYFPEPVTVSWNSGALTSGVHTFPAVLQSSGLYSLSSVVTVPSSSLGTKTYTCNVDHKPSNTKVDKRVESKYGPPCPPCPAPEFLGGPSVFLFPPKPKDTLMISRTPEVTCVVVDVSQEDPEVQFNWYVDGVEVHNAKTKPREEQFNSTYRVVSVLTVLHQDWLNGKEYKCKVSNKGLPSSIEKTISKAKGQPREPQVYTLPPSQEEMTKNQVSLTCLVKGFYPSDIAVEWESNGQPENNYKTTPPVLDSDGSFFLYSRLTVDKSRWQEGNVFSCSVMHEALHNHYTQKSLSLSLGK
light: DIQMTQSPSSLSASVGDRVTITCRPTENIYSYLAWYQQKPGKAPKLLIYFARTLAEGVPSRFSGSGSGTDFTLTISSLQPEDFATYYCQHHYGTPWTFGGGTKVEIKRTVAAPSVFIFPPSDEQLKSGTASVVCLLNNFYPREAKVQWKVDNALQSGNSQESVTEQDSKDSTYSLSSTLTLSKADYEKHKVYACEVTHQGLSSPVTKSFNRGEC
notes: also called parental anti-TSLP antibody hu1C5F12E9-V8(IgG4)
Consider B1, for which, in assay [1], the EC50 worked out at 51.2 pM. Besides, the values for the IC50 in assay [2], in assay [3] and in assay [4] were 71.6 pM, 1040 pM and 1000 pM, respectively.
